US20120164129

Tests used:
Fibrinogen = Fibrinogen (UniProt P02671)
[1] = molecular target: Ecarin-activatable E-WE Prethrombin-2 (W215A/E217A/N282D/P283G)

Sequence of UniProt P02671 (P02671 20-629, chain 1 of 3): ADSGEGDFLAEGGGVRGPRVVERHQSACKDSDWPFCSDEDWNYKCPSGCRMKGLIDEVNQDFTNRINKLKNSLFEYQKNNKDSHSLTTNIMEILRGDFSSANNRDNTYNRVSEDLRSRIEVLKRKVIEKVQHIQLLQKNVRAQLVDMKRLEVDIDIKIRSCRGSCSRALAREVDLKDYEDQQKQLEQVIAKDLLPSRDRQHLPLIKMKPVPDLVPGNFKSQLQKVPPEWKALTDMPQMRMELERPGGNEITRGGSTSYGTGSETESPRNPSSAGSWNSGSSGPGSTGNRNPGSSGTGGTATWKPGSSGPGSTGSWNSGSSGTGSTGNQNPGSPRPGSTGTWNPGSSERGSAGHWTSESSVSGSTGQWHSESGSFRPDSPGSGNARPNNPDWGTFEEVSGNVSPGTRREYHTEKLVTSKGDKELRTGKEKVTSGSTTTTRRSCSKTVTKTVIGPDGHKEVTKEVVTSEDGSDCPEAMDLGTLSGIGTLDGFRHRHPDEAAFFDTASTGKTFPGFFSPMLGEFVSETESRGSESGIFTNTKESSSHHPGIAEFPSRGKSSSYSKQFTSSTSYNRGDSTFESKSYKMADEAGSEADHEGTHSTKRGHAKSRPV
Sequence of UniProt P02671 (chain, as listed by the source, chain 2 of 3): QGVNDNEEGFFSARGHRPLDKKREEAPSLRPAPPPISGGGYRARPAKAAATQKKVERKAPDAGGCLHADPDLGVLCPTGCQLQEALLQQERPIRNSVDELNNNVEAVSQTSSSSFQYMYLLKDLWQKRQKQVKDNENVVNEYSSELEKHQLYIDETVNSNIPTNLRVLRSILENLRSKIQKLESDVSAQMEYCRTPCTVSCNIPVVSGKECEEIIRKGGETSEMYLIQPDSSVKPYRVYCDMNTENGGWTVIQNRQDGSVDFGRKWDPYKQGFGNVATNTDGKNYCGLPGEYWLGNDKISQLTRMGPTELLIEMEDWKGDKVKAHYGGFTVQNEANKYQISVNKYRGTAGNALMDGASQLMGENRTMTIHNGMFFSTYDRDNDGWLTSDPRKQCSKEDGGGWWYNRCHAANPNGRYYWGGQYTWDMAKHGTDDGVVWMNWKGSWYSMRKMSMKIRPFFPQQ
Sequence of UniProt P02671 (chain, as listed by the source, chain 3 of 3): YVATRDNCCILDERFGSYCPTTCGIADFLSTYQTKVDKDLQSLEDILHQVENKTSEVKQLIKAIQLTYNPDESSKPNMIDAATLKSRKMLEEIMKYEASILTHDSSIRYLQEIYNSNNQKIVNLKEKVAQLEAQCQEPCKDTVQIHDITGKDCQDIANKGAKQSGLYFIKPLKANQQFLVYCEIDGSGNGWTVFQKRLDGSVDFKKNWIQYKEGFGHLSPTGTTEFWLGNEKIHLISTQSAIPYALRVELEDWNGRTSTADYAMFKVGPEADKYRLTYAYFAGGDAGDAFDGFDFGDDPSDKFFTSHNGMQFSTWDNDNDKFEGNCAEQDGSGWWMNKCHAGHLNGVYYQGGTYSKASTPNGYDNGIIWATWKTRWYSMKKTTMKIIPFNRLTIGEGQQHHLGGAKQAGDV

E. coli-derived recombinant E-WE thrombin (W215A/E217A), prepared from E-WE prethrombin-2 expressed in E. coli
specificity toward fibrinogen (Fibrinogen): consistently shows lower specificity toward fibrinogen compared to the BHK-expressed construct

WE thrombin (W215A/E217A) prepared from WE prethrombin-1 expressed in BHK cells
activity toward fibrinogen (Fibrinogen): BHK produces a construct with significantly higher activity toward FPR and fibrinogen

B1: Echis carinatus snake venom prothrombin activator (ecarin) (protein)
chain: VPPHERKFEKKFIELVVVVDHSMVTKYNNDSTAIRTWIYEMLNTVNEIYLPFNIRVALVGLEFWCNGDLINVTSTADDTLHSFGEWRASDLLNRKRHDHAQLLTNVTLDHSTLGITFVYGMCKSDRSVELILDYSNITFNMAYIIAHEMGHSLGMLHDTKFCTCGAKPCIMFGKESIPPPKEFSSCSYDQYNKYLLKYNPKCILDPPLRKDIASPAVCGNEIWEEGEECDCGSPADCRNPCCDAATCKLKPGAECGNGECCDKCKIRKAGTECRPARDDCDVAEHCTGQSAECPRNEFQRNGQPCLNNSGYCYNGDCPIMLNQCIALFSPSATVAQDSCFQRNLQGSYYGYCTKEIGYYGKRFPCAPQDVKCGRLYCLDNSFKKNMRCKNDYSYADENKGIVEPGTKCEDGKVCINRKCVDVNTAY
proteolytic cleavage at the engineered ecarin site [1]: Cleavage also occurred at the engineered ecarin site that had been introduced preceding the A chain
proteolytic cleavage between the A and B chains [1]: The expected cleavage took place between the A and B chains to form an A chain-extended E-WE thrombin
